The results in this text go back to the supplement of paper PMC9112550, “Optimization of the antimicrobial peptide Bac7 by deep mutational scanning” (BMC Biology, 2022).
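Note: peptides expressed intracellularly from a pBAD plasmid library in pooled LB shake-flask culture, induced with 0.3% L-arabinose, DNA abundance read by NGS, three biological replicates, DESeq2 with apeglm shrinkage.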

The subject of this data set is Escherichia coli TOP10. Nature of the data set: shrunken log2 fold change of peptide-encoding DNA abundance (4.5 h post-induction vs induction); higher = less antimicrobial activity (less host growth inhibition). The following applies: time post-induction: 4.5 h; library: site-saturation at positions 5, 18, 19, 20.
Turning to RRIRNRPPRLPRPRPRPTSFPRP, the “shrunken log2 fold change” value came to 0.00362. For RRIRVRPPRLPRPRPRPMGCPRP, the “shrunken log2 fold change” value amounted to 0.0117. Then RRIRSRPPRLPRPRPRPQIFPRP, with 0.0933. In the case of RRIRARPPRLPRPRPRPQQHPRP, the “shrunken log2 fold change” value is 0.284. In the case of RRIRRRPPRLPRPRPRPAAWPRP, the “shrunken log2 fold change” value was 0.0944. Then RRIRGRPPRLPRPRPRPGGEPRP, with 1.24. RRIRERPPRLPRPRPRPTMYPRP: the “shrunken log2 fold change” value is -0.162. Regarding RRIRYRPPRLPRPRPRPKGTPRP, the “shrunken log2 fold change” value was -0.0217.

Consider RRIRKRPPRLPRPRPRPATMPRP, for which the “shrunken log2 fold change” value came out at 0.49. Turning to RRIRCRPPRLPRPRPRPITVPRP, the “shrunken log2 fold change” value is -0.222. Turning to RRIRRRPPRLPRPRPRPFKNPRP, the “shrunken log2 fold change” value is 0.0357. In the case of RRIRPRPPRLPRPRPRPNCQPRP, the “shrunken log2 fold change” value came out at 0.419. As to RRIRWRPPRLPRPRPRPQLWPRP, the “shrunken log2 fold change” value worked out at 1.02. With RRIRLRPPRLPRPRPRPHICPRP, the “shrunken log2 fold change” value was -0.162. As for RRIRHRPPRLPRPRPRPWLKPRP, the “shrunken log2 fold change” value was -0.185. Then RRIRLRPPRLPRPRPRPNAGPRP, with 0.0644; and RRIRRRPPRLPRPRPRPRRAPRP, with 0.655; and RRIRIRPPRLPRPRPRPLEGPRP, with -0.0524. As for RRIRGRPPRLPRPRPRPPIRPRP, the “shrunken log2 fold change” value is 0.849. Then RRIRMRPPRLPRPRPRPWYMPRP, with -0.147; and RRIRMRPPRLPRPRPRPSMHPRP, with 0.377. Then RRIRERPPRLPRPRPRPCRMPRP, with -0.363; and RRIRLRPPRLPRPRPRPLEKPRP, with -0.0425; and RRIRVRPPRLPRPRPRPWVPPRP, with -0.101. Consider RRIRTRPPRLPRPRPRPDKLPRP, for which the “shrunken log2 fold change” value was 0.0136. Consider RRIRERPPRLPRPRPRPDWAPRP, for which the “shrunken log2 fold change” value came out at 0.0306. For RRIRHRPPRLPRPRPRPCMGPRP the value was -0.194; for RRIRNRPPRLPRPRPRPWCCPRP, 0.007. For RRIRDRPPRLPRPRPRPIPVPRP, the “shrunken log2 fold change” value was -0.00774. For RRIRPRPPRLPRPRPRPIAWPRP, the “shrunken log2 fold change” value turned out to be 0.266. Then RRIRGRPPRLPRPRPRPFTSPRP, with -0.0475.

In the case of RRIRRRPPRLPRPRPRPHKFPRP, the “shrunken log2 fold change” value is -0.132. As to RRIRDRPPRLPRPRPRPEGLPRP, the “shrunken log2 fold change” value came to 0.0425.

As for RRIRARPPRLPRPRPRPQGFPRP, the “shrunken log2 fold change” value was 0.807. In the case of RRIRNRPPRLPRPRPRPQGQPRP, the “shrunken log2 fold change” value came out at 0.225. Regarding RRIRYRPPRLPRPRPRPQINPRP, the “shrunken log2 fold change” value was -0.669. With RRIRYRPPRLPRPRPRPSMWPRP, the “shrunken log2 fold change” value is -1.68. On to RRIRQRPPRLPRPRPRPFSQPRP, for which the “shrunken log2 fold change” value is 0.0178.

Consider RRIRWRPPRLPRPRPRPCSHPRP, for which the “shrunken log2 fold change” value was -0.264. For the sequence RRIRCRPPRLPRPRPRPSYYPRP, the “shrunken log2 fold change” value was -0.794. For RRIRIRPPRLPRPRPRPETFPRP the value was -0.202; for RRIRVRPPRLPRPRPRPQMFPRP, -0.0716. Take RRIRARPPRLPRPRPRPHALPRP: the “shrunken log2 fold change” value is 0.112. On to RRIRRRPPRLPRPRPRPVFNPRP, for which the “shrunken log2 fold change” value worked out at 0.056. As for RRIRVRPPRLPRPRPRPLCLPRP, the “shrunken log2 fold change” value was -0.376.

For RRIRTRPPRLPRPRPRPFGDPRP, the “shrunken log2 fold change” value was found to be 0.0755. Regarding RRIRARPPRLPRPRPRPHNNPRP, the “shrunken log2 fold change” value was -0.363. For RRIRHRPPRLPRPRPRPHTHPRP, the “shrunken log2 fold change” value is -0.725. In the case of RRIRPRPPRLPRPRPRPQEPPRP, the “shrunken log2 fold change” value amounted to 0.265. Take RRIRCRPPRLPRPRPRPFTKPRP: the “shrunken log2 fold change” value is -0.628. On to RRIRCRPPRLPRPRPRPYEDPRP, for which the “shrunken log2 fold change” value was -0.01.

Consider RRIRRRPPRLPRPRPRPMLEPRP, for which the “shrunken log2 fold change” value stood at 0.0718. For the sequence RRIRIRPPRLPRPRPRPQRQPRP, the “shrunken log2 fold change” value is 0.098. For the sequence RRIRSRPPRLPRPRPRPWYIPRP, the “shrunken log2 fold change” value was -0.314. With RRIRIRPPRLPRPRPRPMYHPRP, the “shrunken log2 fold change” value was -0.839.

For RRIRVRPPRLPRPRPRPSSHPRP, the “shrunken log2 fold change” value is -0.344. As for RRIRSRPPRLPRPRPRPHVVPRP, the “shrunken log2 fold change” value came out at 0.0681. For RRIRIRPPRLPRPRPRPFSKPRP, the “shrunken log2 fold change” value is -0.05. Turning to RRIRMRPPRLPRPRPRPYVKPRP, the “shrunken log2 fold change” value is -0.209. As for RRIRYRPPRLPRPRPRPECRPRP, the “shrunken log2 fold change” value was -0.142. For the sequence RRIRSRPPRLPRPRPRPELLPRP, the “shrunken log2 fold change” value was -0.111. Take RRIRLRPPRLPRPRPRPDLGPRP: the “shrunken log2 fold change” value was -0.0612. Take RRIRCRPPRLPRPRPRPGFHPRP: the “shrunken log2 fold change” value was -0.435. Then RRIRDRPPRLPRPRPRPYVAPRP, with -0.0638. As for RRIRRRPPRLPRPRPRPQWIPRP, the “shrunken log2 fold change” value turned out to be 0.064. In the case of RRIRPRPPRLPRPRPRPAVSPRP, the “shrunken log2 fold change” value came to 0.171.

As to RRIRQRPPRLPRPRPRPHDIPRP, the “shrunken log2 fold change” value stood at 0.0769.

Take RRIRKRPPRLPRPRPRPTIMPRP: the “shrunken log2 fold change” value was -0.0223. For the sequence RRIRSRPPRLPRPRPRPVTLPRP, the “shrunken log2 fold change” value is -0.167.

As for RRIRGRPPRLPRPRPRPAEFPRP, the “shrunken log2 fold change” value was 0.69. In the case of RRIRSRPPRLPRPRPRPFNDPRP, the “shrunken log2 fold change” value is -0.223. Take RRIRIRPPRLPRPRPRPYDVPRP: the “shrunken log2 fold change” value was -0.101. Consider RRIRSRPPRLPRPRPRPDGPPRP, for which the “shrunken log2 fold change” value is 0.0211. In the case of RRIRMRPPRLPRPRPRPLCRPRP, the “shrunken log2 fold change” value was 0.359. Consider RRIRWRPPRLPRPRPRPCSFPRP, for which the “shrunken log2 fold change” value came out at 0.0624. For RRIRPRPPRLPRPRPRPHKSPRP the value was -0.283; for RRIRMRPPRLPRPRPRPYGYPRP, 0.0362; for RRIRERPPRLPRPRPRPQLQPRP, -0.0648. Consider RRIRERPPRLPRPRPRPNGFPRP, for which the “shrunken log2 fold change” value amounted to 0.0354. Turning to RRIRYRPPRLPRPRPRPRRKPRP, the “shrunken log2 fold change” value stood at 0.0824. Then RRIRPRPPRLPRPRPRPNLQPRP, with 0.0751; and RRIRARPPRLPRPRPRPFRPPRP, with 0.153; and RRIRNRPPRLPRPRPRPGDAPRP, with 0.102. Then RRIRRRPPRLPRPRPRPHKVPRP, with 0.0772; and RRIRFRPPRLPRPRPRPEKTPRP, with -0.00398.

Turning to RRIRKRPPRLPRPRPRPVCQPRP, the “shrunken log2 fold change” value was 0.436.

For RRIRMRPPRLPRPRPRPDDAPRP, the “shrunken log2 fold change” value worked out at 0.225. Then RRIRRRPPRLPRPRPRPDYHPRP, with -0.0959.

In the case of RRIRDRPPRLPRPRPRPLGYPRP, the “shrunken log2 fold change” value turned out to be 0.0343. Turning to RRIRARPPRLPRPRPRPPHLPRP, the “shrunken log2 fold change” value is 2.23.

As to RRIRVRPPRLPRPRPRPNPMPRP, the “shrunken log2 fold change” value is 0.0227. As for RRIRTRPPRLPRPRPRPTQYPRP, the “shrunken log2 fold change” value is -0.207.

Consider RRIRMRPPRLPRPRPRPWVIPRP, for which the “shrunken log2 fold change” value was 0.0191.

Regarding RRIRARPPRLPRPRPRPNARPRP, the “shrunken log2 fold change” value amounted to 0.124. Then RRIRIRPPRLPRPRPRPMVGPRP, with 0.105. For RRIRKRPPRLPRPRPRPDRKPRP, the “shrunken log2 fold change” value was 0.413. In the case of RRIRKRPPRLPRPRPRPPITPRP, the “shrunken log2 fold change” value was 0.0882. For RRIRPRPPRLPRPRPRPWPNPRP, the “shrunken log2 fold change” value is -0.0364.

On to RRIRTRPPRLPRPRPRPPKTPRP, for which the “shrunken log2 fold change” value worked out at 0.142. For RRIRQRPPRLPRPRPRPNHRPRP the value was -0.0657. Consider RRIRIRPPRLPRPRPRPYDPPRP, for which the “shrunken log2 fold change” value is -0.0306. As to RRIRGRPPRLPRPRPRPHGMPRP, the “shrunken log2 fold change” value turned out to be 0.0949. For RRIRFRPPRLPRPRPRPHDTPRP the value was -0.535; for RRIRTRPPRLPRPRPRPDSMPRP, 0.0768; for RRIRRRPPRLPRPRPRPLLNPRP, -0.00444. As for RRIRYRPPRLPRPRPRPNLWPRP, the “shrunken log2 fold change” value stood at 0.00221. On to RRIRERPPRLPRPRPRPMPMPRP, for which the “shrunken log2 fold change” value was -0.0464. With RRIRQRPPRLPRPRPRPRDWPRP, the “shrunken log2 fold change” value came out at 1.63. With RRIRQRPPRLPRPRPRPPAHPRP, the “shrunken log2 fold change” value came out at 0.0556.

Regarding RRIRLRPPRLPRPRPRPPHYPRP, the “shrunken log2 fold change” value turned out to be 0.0636.

As for RRIRVRPPRLPRPRPRPDRRPRP, the “shrunken log2 fold change” value worked out at 0.206. RRIRKRPPRLPRPRPRPNPGPRP: the “shrunken log2 fold change” value turned out to be 0.155. In the case of RRIRIRPPRLPRPRPRPYVKPRP, the “shrunken log2 fold change” value is -0.881. Take RRIRCRPPRLPRPRPRPLIQPRP: the “shrunken log2 fold change” value was -0.457. For RRIRHRPPRLPRPRPRPVATPRP the value was -0.079. Turning to RRIRCRPPRLPRPRPRPAGKPRP, the “shrunken log2 fold change” value stood at 0.0831. With RRIRLRPPRLPRPRPRPVWCPRP, the “shrunken log2 fold change” value was 0.0297.

On to RRIRHRPPRLPRPRPRPGYFPRP, for which the “shrunken log2 fold change” value is -0.0725. Consider RRIRERPPRLPRPRPRPKGNPRP, for which the “shrunken log2 fold change” value worked out at 0.139. RRIRFRPPRLPRPRPRPWADPRP: the “shrunken log2 fold change” value is -0.168. On to RRIRFRPPRLPRPRPRPETNPRP, for which the “shrunken log2 fold change” value is 0.127. On to RRIRLRPPRLPRPRPRPKQQPRP, for which the “shrunken log2 fold change” value is -0.134.

As for RRIRLRPPRLPRPRPRPMMRPRP, the “shrunken log2 fold change” value was found to be 0.196. Turning to RRIRTRPPRLPRPRPRPVGSPRP, the “shrunken log2 fold change” value is -0.243.

RRIRFRPPRLPRPRPRPGNTPRP: the “shrunken log2 fold change” value is -0.12.
